Test [1] concerns the target T1, MDMX (In-house, 40 kD) (UniProt O15151 1-120, limits assumed).
T1 construct: Construct not described beyond 'In-house, 40 kD'; also called MDM4
T1 sequence (looked up): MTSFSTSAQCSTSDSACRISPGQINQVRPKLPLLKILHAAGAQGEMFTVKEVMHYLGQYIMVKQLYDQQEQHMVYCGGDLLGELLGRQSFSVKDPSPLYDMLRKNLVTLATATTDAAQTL
In words: FP competition on MDMX vs FAM-labeled linear peptide; graded Ki, + = >1000 nM.

Test [2] addresses T1, MDMX (In-house, 40 kD). Put plainly: FP competition on MDMX vs FAM-labeled linear peptide; graded IC50, + = >1000 nM.
For test [3], the target named is T2, MDM2 (In-house, 41 kD) (UniProt Q00987 1-125, limits assumed).
T2 construct: Only 'In-house, 41 kD' is said of the protein used in the fluorescence polarization assays; also called HDM2
In words: competitive fluorescence polarization on MDM2 against FAM-labeled linear peptide; grade, scale in paragraph 462.

For test [4], the target named is T3, MDMX (In-house, 40 kD) (UniProt O15151 1-120, limits assumed).
T3 construct: Only 'MDMX (In-house, 40 kD)' is said of the protein in the FP assays; also called MDM4
T3 sequence (looked up): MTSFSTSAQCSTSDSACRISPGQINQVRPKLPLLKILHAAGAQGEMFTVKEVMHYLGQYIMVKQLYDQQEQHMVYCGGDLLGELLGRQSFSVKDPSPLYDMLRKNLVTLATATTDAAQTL
Put plainly: competitive FP vs FAM labeled linear peptide; column Ki (MDMX); + = >1000 nM by the table's scale.

The target of test [5] is T3, MDMX (In-house, 40 kD). Put plainly: competitive FP vs FAM labeled linear peptide; column IC50 (MDMX); + = >1000 nM by the table's scale.
Test [6] concerns the target T4, MDMX (In-house, 40 kD) (UniProt O15151 1-120, limits assumed).
T4 construct: Only 'In-house, 40 kD' is said of the protein used in the fluorescence polarization assays; also called MDM4
T4 sequence (looked up): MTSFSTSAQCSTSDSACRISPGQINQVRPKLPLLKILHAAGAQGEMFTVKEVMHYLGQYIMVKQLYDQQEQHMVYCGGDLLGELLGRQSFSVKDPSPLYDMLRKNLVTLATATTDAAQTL
Put plainly: competitive fluorescence polarization on MDMX against FAM-labeled linear peptide; grade, scale in paragraph 462. For orientation: Polarisation of emitted light reports the rotation of a fluorescent probe.

Test [7] deals with T5, MDMX (In-house, 40 kD) (UniProt O15151 1-120, limits assumed).
T5 construct: The construct used is unknown; also called MDM4
T5 sequence (looked up): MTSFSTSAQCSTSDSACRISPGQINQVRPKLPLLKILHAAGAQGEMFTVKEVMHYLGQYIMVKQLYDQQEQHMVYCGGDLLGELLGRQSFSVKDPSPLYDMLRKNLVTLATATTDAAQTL
Put plainly: IC50 (MDMX) grade; competitive FP vs FAM-labeled linear peptide; + = >1000 nM.

For test [8], the target named is MDM2 (In-house, 41 kD) (UniProt Q00987). In words: competitive fluorescence polarization on MDM2 against FAM-labeled linear peptide; grade, scale in paragraph 462.
Test [9] deals with T6, MDMX (In-house, 40 kD) (UniProt O15151).
T6 sequence (looked up): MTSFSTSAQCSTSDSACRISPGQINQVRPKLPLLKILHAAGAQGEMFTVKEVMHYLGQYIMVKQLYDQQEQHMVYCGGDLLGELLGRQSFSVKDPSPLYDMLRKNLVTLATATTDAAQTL
In words: competitive fluorescence polarization on MDMX against FAM-labeled linear peptide; grade, scale in paragraph 462.

Bridges are numbered along the chain shown (N, C = ends). [ ]: non-standard residue; d: D form. The star is where a group is joined. pY = N[C@@H](Cc1ccc(OP(=O)(O)O)cc1)C(=O)O; NMeW = CN[C@@H](Cc1c[nH]c2ccccc12)C(=O)O; Palmitoyl = CCCCCCCCCCCCCCCC(=O)*; R8 = C=CCCCCCC[C@@](C)(N)C(=O)O; Cba = N[C@@H](CC1CCC1)C(=O)O; hLeu = CC(C)CC[C@H](N)C(=O)O; S5 = C=CCCC[C@](C)(N)C(=O)O; Napac = not defined here; Nle = CCCC[C@H](N)C(=O)O; F4g = not defined here; G1a = not defined here

T2 sequence (Q00987 1-125 limits assumed): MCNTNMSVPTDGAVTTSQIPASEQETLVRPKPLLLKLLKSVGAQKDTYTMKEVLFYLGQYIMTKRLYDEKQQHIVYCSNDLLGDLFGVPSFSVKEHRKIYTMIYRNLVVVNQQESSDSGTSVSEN
MDM2 (In-house, 41 kD) (UniProt Q00987), sequence (Q00987 1-125 limits assumed): as above

B1: SP252, Ac-LTA$r8EYWAQCba$SAA-NH2 (peptide)
peptide: Ac-LTA[R8]EYWAQ[Cba][S5]SAA-NH2
modifications: staple 4-11
The Ki is the dissociation constant of the complex between target and ligand, obtained from inhibition or displacement. What is called IC50 is the point on the concentration scale where inhibition reaches its midpoint. For the molecule B1, the Ki with MDMX (In-house, 40 kD) [1] was > 1000 nM. Also, the IC50 with MDMX (In-house, 40 kD) [2] was > 1000 nM.

B2: SP609, Ac-LTF$r8EYWAAibL$AAAAAa-NH2 (peptide)
peptide: LTFAEYWAXLAAAAAAA
modifications: not fully specified; N-terminal acetyl; $r8 (alpha-Me R8-octenyl-alanine) at 4 crosslinked to $ (alpha-Me S5-pentenyl-alanine) at 11; Aib (2-aminoisobutyric acid) at 9; D-alanine at 17; C-terminal amide
notes: stapled peptidomimetic macrocycle
Regarding B2, in the test with MDM2 (In-house, 41 kD) [3], the Ki is ≤ 10 nM.

B3: SP386 (peptide)
peptide: Ac-LTF[R8]AY[NMeW]AQL[S5]AA[Nle]A-NH2
modifications: staple 4-11; not fully specified
notes: Stapled peptidomimetic macrocycle, single isomer iso2; also called Ac-LTF$r8AYNmWAQL$AANleA-NH2
As for B3, the Ki with MDMX (In-house, 40 kD) [4] is > 1000 nM. The 50% inhibitory concentration (IC50) in the test with MDMX (In-house, 40 kD) [5] was > 1000 nM.

B4: SP595, Ac-LTF$r8EYWAQCba$S-NH2 (peptide)
peptide: Ac-LTF[R8]EYWAQ[Cba][S5]S-NH2
modifications: staple 4-11
notes: as for B2
For the molecule B4, the Ki in the test with MDM2 (In-house, 41 kD) [3] was > 1000 nM.

B5: SP250, Pam-ETF$r8EYWAQCba$SAA-NH2 (peptide)
peptide: Palmitoyl-ETF[R8]EYWAQ[Cba][S5]SAA-NH2
modifications: staple 4-11
On to B5, for which, in the test with MDMX (In-house, 40 kD) [1], the Ki is > 1000 nM. The IC50 with MDMX (In-house, 40 kD) [2] is > 1000 nM.

B6: SP716, Ac-LTF$r8EYWAQCba$AAA-NH2 (iso2) (peptide)
peptide: Ac-LTF[R8]EYWAQ[Cba][S5]AAA-NH2
modifications: staple 4-11; not fully specified
notes: stapled peptidomimetic macrocycle, isomer iso2
Consider B6, for which the Ki with MDM2 (In-house, 41 kD) [3] was ≤ 10 nM; with MDMX (In-house, 40 kD) [6], ≤ 10 nM.

B7: SP602, Ac-LTF$r8G1aYWAQL$AAAAAa-NH2 (peptide)
peptide: Ac-LTF[R8][G1a]YWAQL[S5]AAAAA[dA]-NH2
modifications: staple 4-11; not fully specified; reading uncertain
notes: as for B2
On to B7, for which the Ki is ≤ 10 nM with MDM2 (In-house, 41 kD) [3] and ≤ 10 nM with MDMX (In-house, 40 kD) [6].

B8: SP608, Ac-LTF$r8EYWALL$AAAAAa-NH2 (peptide)
peptide: Ac-LTF[R8]EYWALL[S5]AAAAA[dA]-NH2
modifications: staple 4-11
notes: as for B2
Turning to B8, the Ki with MDM2 (In-house, 41 kD) [3] is ≤ 10 nM.

B9: SP613, Ac-LTF$r8EYWAHL$AAAAAa-NH2 (peptide)
peptide: Ac-LTF[R8]EYWAHL[S5]AAAAA[dA]-NH2
modifications: staple 4-11
notes: as for B2
For B9, in the test with MDM2 (In-house, 41 kD) [3], the Ki was ≤ 10 nM.

B10: SP600, Ac-LTF$r8QYWAQL$AAAAAa-NH2 (peptide)
peptide: Ac-LTF[R8]QYWAQL[S5]AAAAA[dA]-NH2
modifications: staple 4-11
notes: as for B2
In the case of B10, the Ki in the test with MDM2 (In-house, 41 kD) [3] was ≤ 10 nM; with MDMX (In-house, 40 kD) [6] it was ≤ 10 nM.

B11: SP610, Ac-LTF$r8EYWASL$AAAAAa-NH2 (peptide)
peptide: Ac-LTF[R8]EYWASL[S5]AAAAA[dA]-NH2
modifications: staple 4-11
notes: as for B2
Regarding B11, in the test with MDM2 (In-house, 41 kD) [3], the Ki was ≤ 10 nM.

B12: SP611, Ac-LTF$r8EYWANL$AAAAAa-NH2 (peptide)
peptide: Ac-LTF[R8]EYWANL[S5]AAAAA[dA]-NH2
modifications: staple 4-11
notes: as for B2
In the case of B12, the Ki with MDM2 (In-house, 41 kD) [3] is ≤ 10 nM.

B13: SP603, Ac-LTF$r8F4gYWAQL$AAAAAa-NH2 (peptide)
peptide: Ac-LTF[R8][F4g]YWAQL[S5]AAAAA[dA]-NH2
modifications: staple 4-11; not fully specified; reading uncertain
notes: as for B2
Regarding B13, the Ki in the test with MDM2 (In-house, 41 kD) [3] is ≤ 10 nM; in the test with MDMX (In-house, 40 kD) [6], ≤ 10 nM.

B14: SP281 (peptide)
peptide: Napac-LTF[R8]EYWAQ[hLeu][S5]SAA-NH2
modifications: staple 4-11; reading uncertain
notes: Peptidomimetic macrocycle (stapled p53-derived peptide)
On to B14, for which the IC50 with MDMX (In-house, 40 kD) [7] is > 1000 nM.

B15: SP615, Ac-LTF$r8EpYWAQL$AAAAAa-NH2 (peptide)
peptide: Ac-LTF[R8]E[pY]WAQL[S5]AAAAA[dA]-NH2
modifications: staple 4-11
For the molecule B15, the Ki in the test with MDM2 (In-house, 41 kD) [8] is < 10 nM; in the test with MDMX (In-house, 40 kD) [9] it was < 10 nM.

(Values after patent publication US20170281720A1 (published 2017).)
